Here are results for 20 molecules from patent publication US20260193326A1 (published 2026).

B1: A4-047 (VHH)
VHH: VQLQESGGGLVQPGGSLRLSCAASGSRFSINTMGWYRQAPGKQRELVATVTRGGSTNYAGSVKGRFTISRDNAKNTVYLQMNSLRPEDTAVYYCHVDEVRQSSWTTSNLWGQGTQVTVSS
B2: A4-018 (VHH)
VHH: B1 VHH with P13A, L46F, S55N, G60E, Q101D, L109I
B3: A4-007 (VHH)
VHH: B1 VHH with P13A, S26R, R27H, T49A, V96I, L109I
B4: A4-017 (VHH)
VHH: B1 VHH with R27I, T32L, V50I, S55N
B5: A4-020 (VHH)
VHH: B1 VHH with P13A, R27T, V50I, S55N, G60D
B6: A4-022 (VHH)
VHH: B1 VHH with R27G, G53D, G60D, S61F, V96L, Q101E
B7: A4-009 (VHH)
VHH: B1 VHH with V11A, L46F, T49A, S83T, L109I
B8: A4-010 (VHH)
VHH: B1 VHH with P13A, R27I, T32S, S55N, G60D, Q101E
B9: A4-008 (VHH)
VHH: B1 VHH with P13A, S26R, R27A, G41P, V77I, L109I
B10: A4-016 (VHH)
VHH: B1 VHH with R27I, T32L, V50I, R52P, S55N
B11: A4-003 (VHH)
VHH: B1 VHH with A22V, S26R, R27S, T49A, V96I, L109I
B12: A4-014 (VHH)
VHH: B1 VHH with T32S, S55N, Q101E
B13: A4-004 (VHH)
VHH: B1 VHH with T49A, V96I, L109I
B14: A4-005 (VHH)
VHH: B1 VHH with P13A, S26R, R27H, T49A, S55G, V96I, L109I
B15: A4-019 (VHH)
VHH: B1 VHH with P13A, R27T, V50I, G60D, L109I
B16: A4-023 (VHH)
VHH: B1 VHH with R27A, T49S, R52P, G60D, V77I, V96L, Q101E
B17: A4-015 (VHH)
VHH: B1 VHH with R27I, T32L, P40A, V50I, R52P, S55N
B18: A4-006 (VHH)
VHH: B1 VHH with S26R, R27H, T49A, V96I, L109I
B19: A4-013 (VHH)
VHH: B1 VHH with T32S, S55N, G60D, Q101E
B20: A4-002 (VHH)
VHH: B1 VHH with S26R, R27S, T49A, V96I, L109I

Where a chain is given by its changes, count along the chain named.

For the first test, the target named is T1, AAV5.
T1 construct: also called adeno-associated virus serotype 5
Description: SPR, AAV on CM5 chip.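 Also: surface plasmon resonance with AAV amine-coupled to the chip as ligand, nanobodies injected as analyte over a concentration series, rate constants and affinity fitted from binding curves.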 A general note: SPR reads the build-up and loss of mass on a sensor chip optically.
Description: (§1) AAV was amine-coupled to a CM5 sensor chip at a density of 500-800 response units (RU). Nanobodies were injected at seven concentrations (1-100 nM) with a flow rate of 45 μL/min, and chip regeneration was performed using glycine-HCl (pH 1.5). Binding curves at different nanobody concentrations were used to calculate kinetic parameters (Kₐ, Kd, KD) (Table 2 and FIG. 2).
As a reminder, the Kd is the concentration at which binding is half-saturated. Read a high Kd as lower affinity. Usually koff stands for the rate constant with which the complex falls apart. A high value points to fast dissociation. As usually defined, the kon is the second-order rate constant of association. High values mean faster complex formation, low ones slower complex formation. In turn, B1 returned a dissociation constant (Kd) of 7.79 nM, a koff of 0.00144 s⁻¹ and a kon of 185000 M⁻¹ s⁻¹.

Molecule B2 had a Kd of 0.962 nM, a koff of 0.00014 s⁻¹ and a kon of 146000 M⁻¹ s⁻¹.

As for B3, binding was put at a Kd of 1260 nM, the koff worked out at 0.0248 s⁻¹ and the kon turned out to be 19700 M⁻¹ s⁻¹.

Take B4: the affinity, expressed as Kd, was 542 nM; the koff came to 0.00164 s⁻¹; the on-rate constant (kon) stood at 3030 M⁻¹ s⁻¹.

In turn, B5 displayed a Kd of 169 nM, a koff of 0.00094 s⁻¹ and a kon of 5550 M⁻¹ s⁻¹.

For the molecule B6, binding was characterised by a dissociation constant (Kd) of 9.61 nM, the koff stood at 0.00152 s⁻¹ and the kon stood at 158000 M⁻¹ s⁻¹.

For B7, the Kd was found to be 141 nM, the koff worked out at 0.00698 s⁻¹ and the kon was determined as 49700 M⁻¹ s⁻¹.

With B8, the Kd was 267 nM, the koff is 0.00038 s⁻¹ and the kon stood at 1420 M⁻¹ s⁻¹.

In turn, B9 had a Kd of 66 nM, a koff of 0.0174 s⁻¹ and a kon of 264000 M⁻¹ s⁻¹.

Consider B10, for which the Kd is 23.9 nM, the koff was 0.00158 s⁻¹ and the kon is 66000 M⁻¹ s⁻¹.

Take B11: the Kd is 8.24 nM, the koff amounted to 0.00019 s⁻¹ and the kon is 23100 M⁻¹ s⁻¹.

B12 registered a Kd of 597 nM, a koff of 0.00529 s⁻¹ and a kon of 8860 M⁻¹ s⁻¹.

Molecule B13 yielded a Kd of 37.5 nM, a koff of 0.00678 s⁻¹ and a kon of 181000 M⁻¹ s⁻¹.

The molecule B14 showed a Kd of 1860 nM and a koff of 0.00193 s⁻¹.

As to B15, the Kd worked out at 48.9 nM, the koff was determined as 0.00156 s⁻¹ and the kon turned out to be 31900 M⁻¹ s⁻¹.

Molecule B16 came in with a Kd of 12.4 nM, a koff of 0.00126 s⁻¹ and a kon of 102000 M⁻¹ s⁻¹.

In turn, B17 had a Kd of 2.76 nM, a koff of 0.00052 s⁻¹ and an on-rate (kon) of 189000 M⁻¹ s⁻¹.

The molecule B18 came in with a Kd of 1.78 nM, a koff of 0.00032 s⁻¹ and a kon of 179000 M⁻¹ s⁻¹.

B19 registered a Kd of 7.24 nM, a koff of 0.00011 s⁻¹ and a kon of 15200 M⁻¹ s⁻¹.

B20 came in with a Kd of 138 nM, a koff of 0.00063 s⁻¹ and a kon of 4570 M⁻¹ s⁻¹.

The target of a further test is T2, AAV9.
T2 construct: also called adeno-associated virus serotype 9
The experiment in a line: SPR, AAV on CM5 chip.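 Also: surface plasmon resonance with AAV amine-coupled to the chip as ligand, nanobodies injected as analyte over a concentration series, rate constants and affinity fitted from binding curves.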
Description: as §1
B1 gave a Kd of 29.1 nM, a koff of 0.00147 s⁻¹ and a kon of 50500 M⁻¹ s⁻¹.

As for B2, the affinity, expressed as Kd, was 62.1 nM; the koff was determined as 0.00745 s⁻¹; the kon came to 120000 M⁻¹ s⁻¹.

On to B3, for which the Kd turned out to be 6.43 nM, the koff is 0.00089 s⁻¹ and the kon came to 138000 M⁻¹ s⁻¹.

B4 came in with a Kd of 0.724 nM, a koff of 4e-05 s⁻¹ and a kon of 55300 M⁻¹ s⁻¹.

The molecule B5 registered a Kd of 73.7 nM, a koff of 0.00169 s⁻¹ and a kon of 23000 M⁻¹ s⁻¹.

In turn, B6 gave a Kd of 28.5 nM, a koff of 0.0001 s⁻¹ and a kon of 3510 M⁻¹ s⁻¹.

Consider B7, for which binding was characterised by a dissociation constant (Kd) of 100 nM, the koff was found to be 0.0139 s⁻¹ and the kon was 139000 M⁻¹ s⁻¹.

Turning to B8, binding was characterised by a dissociation constant (Kd) of 380 nM, the koff is 0.0329 s⁻¹ and the kon amounted to 86600 M⁻¹ s⁻¹.

B9: the Kd is 14.5 nM, the koff was 0.00012 s⁻¹ and the kon worked out at 8270 M⁻¹ s⁻¹.

B10 gave a dissociation constant (Kd) of 131 nM, a koff of 0.00047 s⁻¹ and a kon of 3600 M⁻¹ s⁻¹.

Regarding B11, the Kd came to 184 nM, the koff turned out to be 0.00152 s⁻¹ and the kon stood at 8240 M⁻¹ s⁻¹.

In the case of B12, binding was characterised by a dissociation constant (Kd) of 13.3 nM, the koff was found to be 0.00085 s⁻¹ and the kon was determined as 64000 M⁻¹ s⁻¹.

Take B13: the Kd is 4.51 nM, the koff came out at 0.00081 s⁻¹ and the kon was 180000 M⁻¹ s⁻¹.

As to B14, binding was put at a Kd of 88.5 nM, the koff turned out to be 0.021 s⁻¹ and the kon was determined as 237000 M⁻¹ s⁻¹.

In turn, B15 displayed a Kd of 451 nM, a koff of 0.00525 s⁻¹ and a kon of 11700 M⁻¹ s⁻¹.

On to B16, for which the Kd was 2.88 nM, the koff worked out at 0.00056 s⁻¹ and the kon turned out to be 195000 M⁻¹ s⁻¹.

In turn, B17 displayed a Kd of 3.39 nM, a koff of 0.00017 s⁻¹ and a kon of 50100 M⁻¹ s⁻¹.

In turn, B18 returned a Kd of 192 nM, a koff of 0.0244 s⁻¹ and a kon of 127000 M⁻¹ s⁻¹.

As to B19, the Kd was 480 nM, the koff worked out at 0.0379 s⁻¹ and the kon amounted to 79100 M⁻¹ s⁻¹.

B20: the affinity, expressed as Kd, was 232 nM; the koff worked out at 0.011 s⁻¹; the kon was found to be 47500 M⁻¹ s⁻¹.

The target in another test is T3, AAV8.
T3 construct: also called adeno-associated virus serotype 8
The experiment in a line: SPR, AAV on CM5 chip.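 Also: surface plasmon resonance with AAV amine-coupled to the chip as ligand, nanobodies injected as analyte over a concentration series, rate constants and affinity fitted from binding curves.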
Description: as §1
The molecule B1 returned a Kd of 0.104 nM, a koff of 2e-05 s⁻¹ and a kon of 193000 M⁻¹ s⁻¹.

B2: binding was put at a Kd of 34.9 nM, the koff amounted to 0.00392 s⁻¹ and the kon is 112000 M⁻¹ s⁻¹.

The molecule B3 returned a Kd of 47.4 nM, a koff of 0.00367 s⁻¹ and a kon of 77300 M⁻¹ s⁻¹.

On to B4, for which the Kd was determined as 140 nM, the koff stood at 0.0002 s⁻¹ and the kon stood at 1430 M⁻¹ s⁻¹.

In turn, B5 gave a Kd of 0.506 nM, a dissociation rate constant (koff) of 5.66e-05 s⁻¹ and a kon of 112000 M⁻¹ s⁻¹.

The molecule B6 came in with a Kd of 1.19 nM, a koff of 6.2e-05 s⁻¹ and a kon of 52100 M⁻¹ s⁻¹.

The molecule B7 displayed a Kd of 103 nM, a koff of 0.00219 s⁻¹ and a kon of 21400 M⁻¹ s⁻¹.

Molecule B8 had a Kd of 169 nM, a koff of 0.00249 s⁻¹ and a kon of 14700 M⁻¹ s⁻¹.

Molecule B9 had a Kd of 523 nM, a koff of 0.00164 s⁻¹ and a kon of 3140 M⁻¹ s⁻¹.

As to B10, the Kd is 9.58 nM, the koff is 0.00146 s⁻¹ and the kon was 152000 M⁻¹ s⁻¹.

With B11, binding was put at a Kd of 1.2 nM, the koff stood at 0.000277 s⁻¹ and the kon came to 232000 M⁻¹ s⁻¹.

Turning to B12, binding was put at a Kd of 384 nM, the koff amounted to 0.00109 s⁻¹ and the association rate constant (kon) came to 2840 M⁻¹ s⁻¹.

Molecule B13 returned a Kd of 1.71 nM, a dissociation rate constant (koff) of 0.000286 s⁻¹ and a kon of 167000 M⁻¹ s⁻¹.

For B14, binding was characterised by a dissociation constant (Kd) of 4.39 nM, the koff turned out to be 0.00197 s⁻¹ and the kon was 449000 M⁻¹ s⁻¹.

Take B15: the Kd stood at 6.84 nM, the off-rate (koff) came to 0.00077 s⁻¹ and the kon is 113000 M⁻¹ s⁻¹.

For the molecule B16, binding was characterised by a dissociation constant (Kd) of 143 nM, the koff worked out at 0.00125 s⁻¹ and the kon was 8730 M⁻¹ s⁻¹.

For the molecule B17, the Kd came out at 9.74 nM, the koff was determined as 0.0017 s⁻¹ and the kon is 174000 M⁻¹ s⁻¹.

As to B18, the affinity, expressed as Kd, was 5.87 nM; the koff came out at 0.00224 s⁻¹; the kon was found to be 381000 M⁻¹ s⁻¹.

With B19, the dissociation constant (Kd) stood at 1220 nM, the koff was determined as 0.00737 s⁻¹ and the kon was determined as 6060 M⁻¹ s⁻¹.

Molecule B20 came in with a Kd of 57.7 nM, a koff of 0.00618 s⁻¹ and an on-rate constant (kon) of 107000 M⁻¹ s⁻¹.
